Tests used:
rF8 (HSA fragment F8) = rF8 (HSA fragment F8) (Homo sapiens, UniProt P02768); test: graphene oxide fluorescence recovery (Cy5 aptasensor); GO-quenched aptamer; protein 0.37-1500 ug/mL; sigmoidal, R2 > 0.99; response comparable to full-length rHSA; PBS pH 7.4, graphene oxide (15 uL of 5 mg/mL) + Cy5-H8 (15 uL of 5 uM) preincubated 5 min at room temperature, 200 uL final volume, 30 min with protein in the dark, ex 630/em 670 nm; conditions: protein: recombinant; tags: His-tag; label: 5'-Cy5
rHSA (E. coli) = rHSA (E. coli) (Homo sapiens, UniProt P02768 25-609); test: graphene oxide fluorescence recovery (Cy5 aptasensor); GO-quenched aptamer; protein 0.37-1500 ug/mL; sigmoidal, R2 > 0.99; PBS pH 7.4, graphene oxide (15 uL of 5 mg/mL) + Cy5-H8 (15 uL of 5 uM) preincubated 5 min at room temperature, 200 uL final volume, 30 min with protein in the dark, ex 630/em 670 nm; conditions: protein: recombinant; tags: His-tag; label: 5'-Cy5
rHSA (rice) = rHSA (rice) (Homo sapiens, UniProt P02768 25-609); test: graphene oxide fluorescence recovery (Cy5 aptasensor); GO-quenched aptamer; protein 0.37-1500 ug/mL; sigmoidal, R2 > 0.99; lower fluorescence than E. coli proteins; PBS pH 7.4, graphene oxide (15 uL of 5 mg/mL) + Cy5-H8 (15 uL of 5 uM) preincubated 5 min at room temperature, 200 uL final volume, 30 min with protein in the dark, ex 630/em 670 nm; conditions: protein: commercial; label: 5'-Cy5

Measured: binding result

Sequence of rF8 (HSA fragment F8) (P02768 520-609): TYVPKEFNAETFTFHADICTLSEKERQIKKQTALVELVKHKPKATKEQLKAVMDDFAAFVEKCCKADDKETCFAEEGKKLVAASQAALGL
Sequence of rHSA (E. coli) (P02768 25-609): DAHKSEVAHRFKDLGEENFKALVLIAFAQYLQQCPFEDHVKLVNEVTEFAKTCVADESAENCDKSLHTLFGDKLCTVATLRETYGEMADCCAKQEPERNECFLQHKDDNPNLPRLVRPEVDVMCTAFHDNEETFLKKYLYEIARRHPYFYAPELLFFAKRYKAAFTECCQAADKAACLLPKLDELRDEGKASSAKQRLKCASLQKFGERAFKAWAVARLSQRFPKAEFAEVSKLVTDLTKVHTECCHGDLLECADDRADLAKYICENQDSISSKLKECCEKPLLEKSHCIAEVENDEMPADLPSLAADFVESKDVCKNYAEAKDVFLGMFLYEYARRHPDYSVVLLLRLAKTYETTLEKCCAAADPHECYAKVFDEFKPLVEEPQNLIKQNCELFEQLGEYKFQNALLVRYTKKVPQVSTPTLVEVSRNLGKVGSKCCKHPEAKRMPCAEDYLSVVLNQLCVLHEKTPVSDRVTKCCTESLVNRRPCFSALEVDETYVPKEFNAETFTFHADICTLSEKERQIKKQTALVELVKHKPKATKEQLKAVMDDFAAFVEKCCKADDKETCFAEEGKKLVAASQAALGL
Sequence of rHSA (rice) (P02768 25-609): as above

B1: H8 aptamer (ssDNA)
DNA: ATACCAGCTTATTCAATTCCCCCGGCTTTGGTTTAGAGGTAGTTGCTCATTACTTGTACGCTCCGGATGAGATAGTAAGTGCAATCT
binds: all assays above
